Measurements from patent US5776888A, “Compounds and compositions for delivering active agents” (Emisphere Technologies, Inc., priority 1997, dated 1998).
Like-named read-outs stand apart in the source and are kept apart here.

Set-up: species or system rats
Conditions: rat, in vivo, 1 mg/kg

Question: Which “Mean peak serum interferon concentration” value does the source give for interferon here?
Answer: The value was 79±100.

Question: What about the “Mean peak serum interferon concentration” value (po) of the same substance?
Answer: The value was 1951±1857.
